Residue numbers refer to the chain shown, from its start. Names may count otherwise.
B1: AAV9 VP3 VLP A273N, A472H, E500P (other)
VP3: MASGGGAPVADNNEGADGVGSSSGNWHCDSQWLGDRVITTSTRTWALPTYNNHLYKQISNSTSGGSSNDNNYFGYSTPWGYFDFNRFHCHFSPRDWQRLINNNWGFRPKRLNFKLFNIQVKEVTDNNGVKTIANNLTSTVQVFTDSDYQLPYVLGSAHEGCLPPFPADVFMIPQYGYLTLNDGSQAVGRSSFYCLEYFPSQMLRTGNNFQFSYEFENVPFHSSYAHSQSLDRLMNPLIDQYLYYLSKTINGSGQNQQTLKFSVAGPSNMHVQGRNYIPGPSYRQQRVSTTVTQNNNSPFAWPGASSWALNGRNSLMNPGPAMASHKEGEDRFFPLSGSLIFGKQGTGRDNVDADKVMITNEEEIKTTNPVATESYGQVATNHQSAQAQAQTGWVQNQGILPGMVWQDRDVYLQGPIWAKIPHTDGNFHPSPLMGGFGMKHPPPQILIKNTPVPADPPTAFNKDKLNSFITQYSTGQVSVEIEWELQKENSKRWNPEIQYTSNYYKSNNVEFAVNTEGVYSEPRPIGTRYLTRNL
notes: VP3-only VLP
B2: AAV9 VP3 VLP I451Y, S454I, E500P, P504T (other)
chain: B1 VP3 with N71A, I249Y, S252I, H270A, P302T
modifications: One VP3 subunit is given; in the assay it stood assembled as a VP3-only icosahedral VLP capsid.
notes: VP3-only VLP
B3: AAV9 VP3 VLP Q387K, A472H, E500P (other)
VP3: B1 VP3 with N71A, Q185K
notes: VP3-only VLP
B4: AAV9 VP3 VLP I451Y, S454I, E500P (other)
chain: B1 VP3 with N71A, I249Y, S252I, H270A
notes: VP3-only VLP
B5: AAV9 VP3 VLP A273N/Q387K/E500R (other)
VP3: B1 VP3 with Q185K, H270A, P298R
notes: VP3-only VLP; also called AN.QK.ER
B6: AAV9 VP3 VLP I451Y, S454I, E500P, P504I (other)
chain: B1 VP3 with N71A, I249Y, S252I, H270A, P302I
modifications: One VP3 subunit is given; in the assay it stood assembled as a VP3-only icosahedral VLP capsid.
notes: VP3-only VLP
B7: AAV9 VP3 VLP A273N, Q387K, A472H, E500P (other)
VP3: B1 VP3 with Q185K
notes: VP3-only VLP
B8: AAV2 VP3 VLP A593E (other)
chain: MATGSGAPMADNNEGADGVGNSSGNWHCDSTWMGDRVITTSTRTWALPTYNNHLYKQISSQSGASNDNHYFGYSTPWGYFDFNRFHCHFSPRDWQRLINNNWGFRPKRLNFKLFNIQVKEVTQNDGTTTIANNLTSTVQVFTDSEYQLPYVLGSAHQGCLPPFPADVFMVPQYGYLTLNNGSQAVGRSSFYCLEYFPSQMLRTGNNFTFSYTFEDVPFHSSYAHSQSLDRLMNPLIDQYLYYLSRTNTPSGTTTQSRLQFSQAGASDIRDQSRNWLPGPCYRQQRVSKTSADNNNSEYSWTGATKYHLNGRDSLVNPGPAMASHKDDEEKFFPQSGVLIFGKQGSEKTNVDIEKVMITDEEEIRTTNPVATEQYGSVSTNLQRGNRQAATEDVNTQGVLPGMVWQDRDVYLQGPIWAKIPHTDGHFHPSPLMGGFGLKHPPPQILIKNTPVPANPSTTFSAAKFASFITQYSTGQVSVEIEWELQKENSKRWNPEIQYTSNYNKSVNVDFTVDTNGVYSEPRPIGTRYLTRNL
notes: VP3-only VLP
B9: AAV2 VP3 VLP T592D (other)
chain: B8 chain with T390D, E391A
notes: VP3-only VLP
B10: AAV2 VP3 VLP T592D/A593E (other)
chain: B8 chain with T390D
notes: VP3-only VLP
B11: AAV receptor (AAVR) fragment comprising the domains PKD1 and PKD2 (residues V305-V499) (receptor)
chain: VIKELVVSAGESVQITLPKNEVQLNAYVLQEPPKGETYTYDWQLITHPRDYSGEMEGKHSQILKLSKLTPGLYEFKVIVEGQNAHGEGYVNVTVKPEPRKNRPPIAIVSPQFQEISLPTTSTVIDGSQSTDDDKIVQYHWEELKGPLREEKISEDTAILKLSKLVPGNYTFSLTVVDSDGATNSTTANLTVNKAV

How the values were obtained:
[1] = biological target: AAV receptor (AAVR) on HEK293 cells (Homo sapiens (Human)) (UniProt Q8IZA0); test: cell-based or functional assay
[2] = biological target: B11; test: SPR; against wild-type VLP
[3] = biological target: B11; test: SPR; captured AAV9 VP3 VLP, AAVR analyte
[4] = biological target: B11; test: SPR, three replicates; affinity against wild-type AAV9 VLP
[5] = biological target: B11; test: SPR, three replicates; captured AAV9 VP3 VLP, AAVR analyte
[6] = biological target: B11; test: SPR, single replicate; affinity against wild-type AAV9 VLP
[7] = biological target: B11; test: SPR, single replicate; captured AAV9 VP3 VLP, AAVR analyte
[8] = biological target: B11; test: SPR; affinity against wild-type AAV2 VLP
[9] = biological target: B8; test: SPR; captured AAV2 VP3 VLP, AAVR analyte
[10] = biological target: T1, Wild-type AAV2 VP3 VLP (adeno-associated virus serotype 2 (AAV2), UniProt P03135 203-735); test: SPR; captured AAV2 VP3 VLP, AAVR analyte
T1 construct: VP3-only VLP; also called Wild-type AAV2 VLP (WT); WT

[11] = biological target: B9; test: SPR; captured AAV2 VP3 VLP, AAVR analyte
[12] = biological target: B10; test: SPR; captured AAV2 VP3 VLP, AAVR analyte

Sequence of AAV receptor (AAVR) on HEK293 cells (Homo sapiens (Human)) (Q8IZA0 whole entry): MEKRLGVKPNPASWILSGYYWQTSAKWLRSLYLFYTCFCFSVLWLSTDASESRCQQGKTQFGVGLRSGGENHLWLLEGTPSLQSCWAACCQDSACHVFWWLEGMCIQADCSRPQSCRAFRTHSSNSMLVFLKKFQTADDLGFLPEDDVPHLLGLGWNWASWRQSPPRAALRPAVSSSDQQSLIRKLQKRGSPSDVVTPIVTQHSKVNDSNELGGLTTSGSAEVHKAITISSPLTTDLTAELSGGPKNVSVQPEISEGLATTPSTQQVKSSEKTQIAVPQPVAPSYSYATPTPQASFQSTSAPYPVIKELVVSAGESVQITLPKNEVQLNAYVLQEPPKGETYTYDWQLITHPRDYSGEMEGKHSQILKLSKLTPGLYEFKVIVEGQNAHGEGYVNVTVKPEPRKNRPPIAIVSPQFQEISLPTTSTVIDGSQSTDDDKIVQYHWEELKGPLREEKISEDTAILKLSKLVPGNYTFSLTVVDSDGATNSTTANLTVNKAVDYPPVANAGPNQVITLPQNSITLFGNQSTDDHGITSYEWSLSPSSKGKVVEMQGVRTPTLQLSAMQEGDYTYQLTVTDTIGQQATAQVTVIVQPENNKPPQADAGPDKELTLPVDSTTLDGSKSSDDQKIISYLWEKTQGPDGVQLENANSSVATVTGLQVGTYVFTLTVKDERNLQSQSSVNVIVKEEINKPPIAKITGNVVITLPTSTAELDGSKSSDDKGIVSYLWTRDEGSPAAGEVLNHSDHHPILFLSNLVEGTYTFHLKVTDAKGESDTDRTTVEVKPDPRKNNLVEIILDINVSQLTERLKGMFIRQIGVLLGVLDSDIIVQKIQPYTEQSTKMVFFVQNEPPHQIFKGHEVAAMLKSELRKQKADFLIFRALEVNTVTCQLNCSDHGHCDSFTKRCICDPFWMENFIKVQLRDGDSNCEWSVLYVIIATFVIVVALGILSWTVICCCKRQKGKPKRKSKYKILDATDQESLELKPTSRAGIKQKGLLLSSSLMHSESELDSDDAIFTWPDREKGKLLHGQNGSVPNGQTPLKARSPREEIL

Molecule: AAV9 comprising a Q387K amino acid substitution mutation (full AAV with VP1, VP2 and VP3)
- Expression of a transgene (GFP) in transduced HEK293 cells [1]: 3 fold

Molecule: B1
- KD Fold Change [2]: 455 fold
- Kd [3]: 0.00514 µM
- koff [3]: 0.000236 s⁻¹
- kon [3]: 45900 M⁻¹ s⁻¹

Molecule: B2
- KD Fold Change [2]: 146 fold

Molecule: B3
- KD Fold Change [2]: 3370 fold
- Kd [3]: 0.000694 µM
- koff [3]: 0.000338 s⁻¹
- kon [3]: 487000 M⁻¹ s⁻¹

Molecule: B4
- KD Fold Change [2]: 217 fold

Molecule: B5
- KD Fold Change [2]: 117 fold
- Fold change vs WT [4]: 117 fold
- Kd [5]: 0.02 µM
- koff [5]: 0.000667 s⁻¹
- kon [5]: 33300 M⁻¹ s⁻¹
- Kd [3]: 0.02 µM
- koff [3]: 0.000667 s⁻¹
- kon [3]: 33300 M⁻¹ s⁻¹
- Fold change vs WT [6]: 53 fold
- Kd [7]: 0.08 µM
- koff [7]: 0.000962 s⁻¹
- kon [7]: 11800 M⁻¹ s⁻¹

Molecule: B6
- KD Fold Change [2]: 214 fold

Molecule: B7
- KD Fold Change [2]: 5560 fold
- Kd [3]: 0.000421 µM
- koff [3]: 3.96e-05 s⁻¹
- kon [3]: 94000 M⁻¹ s⁻¹

Molecule: B8
- Fold change vs WT [8]: ~4 fold

Molecule: B9
- Fold change vs WT [8]: 5 fold

Molecule: B10
- Fold change vs WT [8]: ~6 fold

Molecule: B11
- Kd [9]: 0.52 µM
- koff [9]: 0.0111 s⁻¹
- kon [9]: 21600 M⁻¹ s⁻¹
- Kd [10]: 2.1 µM
- koff [10]: 0.0311 s⁻¹
- kon [10]: 15100 M⁻¹ s⁻¹
- Kd [11]: 0.42 µM
- koff [11]: 0.00797 s⁻¹
- kon [11]: 19100 M⁻¹ s⁻¹
- Kd [12]: 0.33 µM
- koff [12]: 0.00652 s⁻¹
- kon [12]: 19600 M⁻¹ s⁻¹

— US20250388628A1 (Genentech, published 2025)
